Molecular target: T1, covalently-linked trimer of an N-terminal truncated ClpX variant (ClpX-ΔN3) (E. coli, UniProt A7ZIJ6 62-424)
T1 construct: About 30-100 nM was present in the trans solution with ATP; also called synthetically designed trimer of ClpX subunits expressed as a single chain
Test: nanopore ionic current recording; substrate cis, ClpX/ATP trans

B1: substrate protein S1 (single N-terminal Smt3 domain, 65-amino-acid charged flexible tail, C-terminal 11 amino acid ssrA tag) (other)
chain: MGSSHHHHHHGSGLVPRGSASMSDSEVNQEAKPEVKPEVKPETHINLKVSDGSSEIFFKIKKTTPLRRLMEAFAKRQGKEMDSLRFLYDGIRIQADQTPEDLDMEDNDIIEAHREQIGGGGSSGGSGGSGSSGDGGSSGGSGGSGSSGDGGSSGGSGGDGSSGDGGSDGDSDGSDGDGDSDGDDAANDENYALAA
notes: Engineered fusion expressed in E. coli BL21 (DE3)*; About 1-2 uM was added to the cis well; also called engineered Smt3 protein
  binding result: binds

Reference: patent US20220396758A1 (University of California, published 2022)
